Data from patent US20230265198A1 (TWIST BIOSCIENCE, published 2023).
Residue numbers refer to the chain shown, from its start.

B1: NRP1-63 (VHH)
VHH: EVQLVESGGGLVQPGGSLRLSCAASGTFGSYTMGWFRQAPGKERELVATIWWTFDAPYYADSVKGRFTISADNSKNTAYLQMNSLKPEDTAVYYCAAYQAGWGDWGQGTLVTVSS
B2: NRP1-29 (VHH)
VHH: EVQLVESGGGLVQPGGSLRLSCAASGFTLDNYAMGWFRQAPGKEREFVARITSGGDTTYYADSVKGRFTISADNSKNTAYLQMNSLKPEDTAVYYCARAYGRGTYDWGQGTLVTVSS
B3: NRP1-30 (VHH)
VHH: EVQLVESGGGLVQPGGSLRLSCAASGRTLSSYNMGWFRQAPGKEREFVARIWPGGGTTYADSVKGRFTISADNSKNTAYLQMNSLKPEDTAVYYCARDYFGSGSYYDWGQGTLVTVSS
B4: NRP1-68 (VHH)
VHH: EVQLVESGGGLVQPGGSLRLSCAASGNIFINNAMGWFRQAPGKERELVAAITSSSGRRWYADSVKGRFTISADNSKNTAYLQMNSLKPEDTAVYYCTTDRWYSSNWWGQGTLVTVSS
B5: NRP1-69 (VHH)
VHH: EVQLVESGGGLVQPGGSLRLSCAASGFNFNWYPMGWFRQAPGKEREWVGTINSGGSTSYADSVKGRFTISADNSKNTAYLQMNSLKPEDTAVYYCARLPPRGSYYYYYYGMDVWGQGTLVTVSS
B6: NRP1-42 (VHH)
VHH: EVQLVESGGGLVQPGGSLRLSCAASGRTISNYDMGWFRQAPGKEREWVASINWGDGNTYYADSVKGRFTISADNSKNTAYLQMNSLKPEDTAVYYCARAPTYYYDSSGYYYAYWGQGTLVTVSS
B7: NRP1-20 (VHH)
VHH: EVQLVESGGGLVQPGGSLRLSCAASGSTFSLFAMGWFRQAPGKEREFVAAISRSGGLTSYADSVKGRFTISADNSKNTAYLQMNSLKPEDTAVYYCAKAAGDWTYDEDYYYMDVWGQGTLVTVSS
B8: NRP1-60 (VHH)
VHH: EVQLVESGGGLVQPGGSLRLSCAASGNIFINNAMGWFRQAPGKERELVAAISGRSGNTYYADSVKGRFTISADNSKNTAYLQMNSLKPEDTAVYYCAARRIVNVEGAYRDWGQGTLVTVSS
B9: NRP1-3 (VHH)
VHH: EVQLVESGGGLVQPGGSLRLSCAASGEPTFSSVAMGWFRQAPGKEREWVAEIYPSGSTVYADSVKGRFTISADNSKNTAYLQMNSLKPEDTAVYYCAKTNWNDWGAFDIWGQGTLVTVSS
B10: NRP1-5 (VHH)
VHH: EVQLVESGGGLVQPGGSLRLSCAASGNIDRLYVMGWFRQAPGKEREFVAAINWSSGTTVYADSVKGRFTISADNSKNTAYLQMNSLKPEDTAVYYCARSYSSLFRFDYWGQGTLVTVSS
B11: NRP1-54 (VHH)
VHH: EVQLVESGGGLVQPGGSLRLSCAASGIAFRIRTMGWFRQAPGKEREFVAGISRSGASTAYADSVKGRFTISADNSKNTAYLQMNSLKPEDTAVYYCAARRIVNVEGAYRDWGQGTLVTVSS
B12: NRP1-67 (VHH)
VHH: EVQLVESGGGLVQPGGSLRLSCAASGLYLHSSAMGWFRQAPGKEREFVAAISSSDGSTEYADSVKGRFTISADNSKNTAYLQMNSLKPEDTAVYYCASVRYYDYWSGYYTPTHAGYFESWGQGTLVTVSS
B13: NRP1-292 (antibody, IgG2, V domains shown)
VH: EVQLLESGGGLVQPGGSLRLSCAASGFTLSSYAMAWVRQAPGKGLEWVSAIRGSGGTTYYADSVKGRFTISRDNSKNTLYLQMNSLRAEDTAVYYCARRGRAPRMVRGVVNRRPYYFDYWGQGTLVTVSS
VL: DIQMTQSPSSLSASVGDRVTITCRTSQSIATYLNWYQQKPGKAPKLLIYGASRSQSGVPSRFSGSGSGTDFTLTISSLQPEDFATYYCQQSYFTPPTFGGGTKVEIK
B14: NRP1-299 (antibody, IgG2, V domains shown)
VH: EVQLLESGGGLVQPGGSLRLSCAASGFTFRRYAMSWVRQAPGKGLEWVATISGSGGSTYYADSVKGRFTISRDNSKNTLYLQMNSLRAEDTAVYYCARGGNGSNRRPSLLPRNRAAAIGFESAFDVWGQGTLVTVSS
VL: B13 VL with T25A, S28T, T31N, G50R, S54L, F93N, P96Y
B15: NRP1-19 (VHH)
VHH: EVQLVESGGGLVQPGGSLRLSCAASGIAFRIRTMGWFRQAPGKEREFVAGISRSGASTAYADSVKGRFTISADNSKNTAYLQMNSLKPEDTAVYYCTTDRWYSSNWWGQGTLVTVSS
B16: NRP1-36 (VHH)
VHH: EVQLVESGGGLVQPGGSLRLSCAASGFPVNRYSMGWFRQAPGKEREFVATITVGGSTYYADSVKGRFTISADNSKNTAYLQMNSLKPEDTAVYYCARQFGAWLGEVVGPMDVWGQGTLVTVSS
B17: NRP1-28 (VHH)
VHH: EVQLVESGGGLVQPGGSLRLSCAASGFTRSYYTMGWFRQAPGKEREFVAAMNWSGSSTVYADSVKGRFTISADNSKNTAYLQMNSLKPEDTAVYYCAKDTGSPKNYYYYYGMDVWGQGTLVTVSS
B18: NRP1-52 (VHH)
VHH: EVQLVESGGGLVQPGGSLRLSCAASGFTFSWYPMGWFRQAPGKEREFVAAISPSGSTDYADSVKGRFTISADNSKNTAYLQMNSLKPEDTAVYYCARDPNYDFWSGYYSSEHYFDYWGQGTLVTVSS
B19: NRP1-64 (VHH)
VHH: EVQLVESGGGLVQPGGSLRLSCAASGSTFRGAAMGWFRQAPGKEREWVGTISSDGTTKYADSVKGRFTISADNSKNTAYLQMNSLKPEDTAVYYCAADRVLYYSDSRYYTGSNWGQGTLVTVSS
B20: NRP1-38 (VHH)
VHH: EVQLVESGGGLVQPGGSLRLSCAASGFTFGSTTMGWFRQAPGKEREFVATMRWSTGSTVYADSVKGRFTISADNSKNTAYLQMNSLKPEDTAVYYCAVRGDWWAYWTPWGQGTLVTVSS
B21: NRP1-24 (VHH)
VHH: EVQLVESGGGLVQPGGSLRLSCAASGFKFNDSYMGWFRQAPGKEREFVATIWWTFDAPYYADSVKGRFTISADNSKNTAYLQMNSLKPEDTAVYYCAVKERSTGWDFAWGQGTLVTVSS
B22: NRP1-21 (VHH)
VHH: EVQLVESGGGLVQPGGSLRLSCAASGRSRYGMGWFRQAPGKEREFVAAITRSGKTTYYADSVKGRFTISADNSKNTAYLQMNSLKPEDTAVYYCARRLLSGSPSRSYYFDYWGQGTLVTVSS
B23: NRP1-73 (VHH)
VHH: EVQLVESGGGLVQPGGSLRLSCAASGFTFSGNWMGWFRQAPGKERELVAVILRGGSTNYADSVKGRFTISADNSKNTAYLQMNSLKPEDTAVYYCAVKIYSGSYSSPPGYNWGQGTLVTVSS
B24: NRP1-55 (VHH)
VHH: EVQLVESGGGLVQPGGSLRLSCAASGFTLDYYVMGWFRQAPGKEREWVAFISGSGSKFYADSVKGRFTISADNSKNTAYLQMNSLKPEDTAVYYCVIQHFWSGYDDDYWGQGTLVTVSS
B25: NRP1-57 (VHH)
VHH: EVQLVESGGGLVQPGGSLRLSCAASGFTFSNSGMGWFRQAPGKERELVARITRGGRTYADSVKGRFTISADNSKNTAYLQMNSLKPEDTAVYYCAARRIVNVEGAYRDWGQGTLVTVSS
B26: NRP1-56 (VHH)
VHH: EVQLVESGGGLVQPGGSLRLSCAASGRTFSSYRMGWFRQAPGKEREFVASIRSSGTTYADSVKGRFTISADNSKNTAYLQMNSLKPEDTAVYYCARDTLGRASSSTDWGQGTLVTVSS
B27: NRP1-66 (VHH)
VHH: EVQLVESGGGLVQPGGSLRLSCAASGRTFRPYRMGWFRQAPGKERELVAAITSGTHKDYADSVKGRFTISADNSKNTAYLQMNSLKPEDTAVYYCAADYSGSYTSLWSRPERLWGQGTLVTVSS
B28: NRP1-26 (VHH)
VHH: EVQLVESGGGLVQPGGSLRLSCAASGRTFRPYRMGWFRQAPGKEREWISTIYSNGHTYYADSVKGRFTISADNSKNTAYLQMNSLKPEDTAVYYCAAQRRWSQDWGQGTLVTVSS
B29: NRP1-31 (VHH)
VHH: EVQLVESGGGLVQPGGSLRLSCAASGLTFRRYDMGWFRQAPGKERELVAIKFSGGSTRYADSVKGRFTISADNSKNTAYLQMNSLKPEDTAVYYCATSSGRVPAALNWGQGTLVTVSS
B30: NRP1-32 (VHH)
VHH: B29 VHH with K51I, S70I, S74N, T90N
B31: NRP1-40 (VHH)
VHH: EVQLVESGGGLVQPGGSLRLSCAASGSITSFNAMGWFRQAPGKERELVASINWSGARTLYADSVKGRFTISADNSKNTAYLQMNSLKPEDTAVYYCASARYYGSGRHFDYWGQGTLVTVSS
B32: NRP1-34 (VHH)
VHH: EVQLVESGGGLVQPGGSLRLSCAASGYTYRKYCMGWFRQAPGKEREWVAAISRSGNLKSYADSVKGRFTISADNSKNTAYLQMNSLKPEDTAVYYCAIKRWPVDTRRRRDMVVGCPGRDEYEWGQGTLVTVSS
B33: NRP1-39 (VHH)
VHH: EVQLVESGGGLVQPGGSLRLSCAASGRTFSGDVMGWFRQAPGKEREFVAAINYSGRSINYADSVKGRFTISADNSKNTAYLQMNSLKPEDTAVYYCARETLWLKRYWGQGTLVTVSS

Molecular target: T1, neuropilin-1 (NRP1) on HEK293 cells overexpressing NRP1 (UniProt O14786 22-923, limits assumed)
T1 construct: whole, on cells
Assay: flow cytometry, HEK293-NRP1 vs HEK293

Binder	100 nM FACS (MFI Ratio)
B1	8.3
B2	26
B3	40.2
B4	4.9
B5	8.2
B6	4
B7	50.9
B8	1
B9	13.4
B10	14.8
B11	0.6
B12	2.1
B13	0.4
B14	2.5
B15	420
B16	3
B17	33

Binder	100 nM FACS (MFI Ratio)
B18	10.7
B19	0.8
B20	10.5
B21	6.4
B22	1
B23	5.9
B24	2.7
B25	0.1
B26	5.4
B27	1.1
B28	0.9
B29	5.7
B30	0.3
B31	16.7
B32	612
B33	5.6
